Article PMC9666628 (Nature Communications, 2022)
Positions count from the first letter of the chain named. Values joined by “and” are separate entries in the source; they are usually repeats but may differ in a detail not shown here. Equal values may be shown once.

Tests used:
Details in all cases: both partners purified
[1] = target: T1, wild-type Cbx7 chromodomain (human, UniProt O95931 7-66); assay: fluorescence polarisation; 0.5 nM FITC-labeled peptide, chromodomain serially diluted (wild types 200-0.2 µM; Cbx7.V1 and Cbx.VDs 50 µM-50 nM); 25 °C, 30 min; 25 mM HEPES pH 7.5, 150 mM NaCl, 1 mM DTT, 0.01% TritonX-100; one-site total binding model; values of single replicates
T1 construct: chromodomain of human Cbx7; also called Cbx7.wt; source: E. coli BL21(DE3), purified (Ni-NTA), tags removed with TEV protease
T1 sequence: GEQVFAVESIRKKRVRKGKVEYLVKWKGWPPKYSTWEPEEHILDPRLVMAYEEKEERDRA

[2] = target: T2, Cbx7 chromodomain Q9D (human, UniProt O95931 7-66, Q9D); assay: as above
T2 construct: chromodomain of human Cbx7; residues numbered on full-length Cbx7; also called Cbx7 Q9D; source: E. coli BL21(DE3), purified (Ni-NTA), tags removed with TEV protease
T2 sequence: T1 sequence with Q3D

[3] = target: T3, Cbx7 chromodomain K33E (human, UniProt O95931 7-66, K33E); assay: as above
T3 construct: chromodomain of human Cbx7; residues numbered on full-length Cbx7; also called Cbx7 K33E; source: E. coli BL21(DE3), purified (Ni-NTA), tags removed with TEV protease
T3 sequence: T1 sequence with K27E

[4] = target: T4, Cbx7.V1 chromodomain variant (tags removed, used for FP) (human, UniProt O95931 7-66, E8D (printed as the back-mutation D8E) | Q9D | V10I (printed as the …)); assay: as above
T4 construct: chromodomain of human Cbx7 with the six substitutions of the phage-selected variant V1; residues numbered on full-length Cbx7; source: E. coli BL21(DE3), purified (Ni-NTA), tags removed with TEV protease
T4 sequence: T1 sequence with E2D, Q3D, V4I, K27E, P31L, K32E

[5] = target: T5, Cbx7 chromodomain with the double substitution Q9D/K33E (human, UniProt O95931 7-66, Q9D | K33E); assay: as above
T5 construct: chromodomain of human Cbx7; residues numbered on full-length Cbx7; also called Cbx7.VD; source: E. coli BL21(DE3), purified (Ni-NTA), tags removed with TEV protease
T5 sequence: T1 sequence with Q3D, K27E

[6] = target: T1, wild-type Cbx7 chromodomain; assay: as above; remark: listed apart in the source
[7] = target: T5, Cbx7 chromodomain with the double …; assay: as above; remark: listed apart in the source
[8] = target: T6, wild-type Cbx2 chromodomain (human, UniProt Q14781 9-62); assay: as above
T6 construct: chromodomain of human Cbx2; also called Cbx2.wt; source: E. coli BL21(DE3), purified (Ni-NTA), tags removed with TEV protease
T6 sequence: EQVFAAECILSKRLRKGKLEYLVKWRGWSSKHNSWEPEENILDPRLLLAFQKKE

[9] = target: T7, Cbx7.V1 chromodomain variant (protein used for BLI) (human, UniProt O95931 7-66, E8D (printed as the back-mutation D8E) | Q9D | V10I (printed as the …)); assay: BLI; biotinylated peptide on streptavidin biosensor tips, chromodomain in solution at 5 or 1 µM; 25 °C; 25 mM HEPES pH 7.0, 150 mM NaCl, 1 mg/ml BSA, 0.01% Tween-20; steady-state fit, Langmuir model; values of single replicates
T7 construct: chromodomain of human Cbx7 with the six substitutions of the phage-selected variant V1; residues numbered on full-length Cbx7; for BLI they were probably still on the protein; source: E. coli BL21(DE3), purified (Ni-NTA)
T7 sequence: T1 sequence with E2D, Q3D, V4I, K27E, P31L, K32E

[10] = target: T8, Cbx7.V1 back-mutant D8E (human, UniProt O95931 7-66, Q9D | V10I (printed as the back-mutation I10V) | K33E | P37L (printed as the …)); assay: as above
T8 construct: chromodomain of human Cbx7, variant V1 with residue 8 put back to the wild type; residues numbered on full-length Cbx7; Tags probably still on the protein in BLI (removal is told for FP and ITC only); source: E. coli BL21(DE3), purified (Ni-NTA)
T8 sequence: T1 sequence with Q3D, V4I, K27E, P31L, K32E

[11] = target: T9, Cbx7.V1 back-mutant I10V (human, UniProt O95931 7-66, E8D (printed as the back-mutation D8E) | Q9D | K33E | P37L (printed as the …)); assay: as above
T9 construct: chromodomain of human Cbx7, variant V1 with residue 10 put back to the wild type; residues numbered on full-length Cbx7; Tags probably still on the protein in BLI (removal is told for FP and ITC only); source: E. coli BL21(DE3), purified (Ni-NTA)
T9 sequence: T1 sequence with E2D, Q3D, K27E, P31L, K32E

[12] = target: T10, Cbx7.V1 back-mutant E33K (human, UniProt O95931 7-66, E8D (printed as the back-mutation D8E) | Q9D | V10I (printed as the …)); assay: as above
T10 construct: chromodomain of human Cbx7, variant V1 with residue 33 put back to the wild type; residues numbered on full-length Cbx7; Tags probably still on the protein in BLI (removal is told for FP and ITC only); source: E. coli BL21(DE3), purified (Ni-NTA)
T10 sequence: T1 sequence with E2D, Q3D, V4I, P31L, K32E

[13] = target: T11, Cbx7.V1 back-mutant L37P (human, UniProt O95931 7-66, E8D (printed as the back-mutation D8E) | Q9D | V10I (printed as the …)); assay: as above
T11 construct: chromodomain of human Cbx7, variant V1 with residue 37 put back to the wild type; residues numbered on full-length Cbx7; Tags probably still on the protein in BLI (removal is told for FP and ITC only); source: E. coli BL21(DE3), purified (Ni-NTA)
T11 sequence: T1 sequence with E2D, Q3D, V4I, K27E, K32E

[14] = target: T12, Cbx7.V1 back-mutant E38K (human, UniProt O95931 7-66, E8D (printed as the back-mutation D8E) | Q9D | V10I (printed as the …)); assay: as above
T12 construct: chromodomain of human Cbx7, variant V1 with residue 38 put back to the wild type; residues numbered on full-length Cbx7; Tags probably still on the protein in BLI (removal is told for FP and ITC only); source: E. coli BL21(DE3), purified (Ni-NTA)
T12 sequence: T1 sequence with E2D, Q3D, V4I, K27E, P31L

[15] = target: T13, wild-type Cbx1 chromodomain (human, UniProt P83916 20-73); assay: fluorescence polarisation; 0.5 nM FITC-labeled peptide, chromodomain serially diluted (wild types 200-0.2 µM; Cbx7.V1 and Cbx.VDs 50 µM-50 nM); 25 °C, 30 min; 25 mM HEPES pH 7.5, 150 mM NaCl, 1 mM DTT, 0.01% TritonX-100; one-site total binding model; values of single replicates
T13 construct: chromodomain of human Cbx1; also called Cbx1.wt; source: E. coli BL21(DE3), purified (Ni-NTA), tags removed with TEV protease
T13 sequence (P83916 20-73, looked up): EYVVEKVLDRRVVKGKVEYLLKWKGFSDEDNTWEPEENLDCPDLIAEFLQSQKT

[16] = target: T14, wild-type Cbx5 chromodomain (human, UniProt P45973 18-75); assay: as above
T14 construct: chromodomain of human Cbx5; also called Cbx5.wt; source: E. coli BL21(DE3), purified (Ni-NTA), tags removed with TEV protease
T14 sequence (P45973 18-75, looked up): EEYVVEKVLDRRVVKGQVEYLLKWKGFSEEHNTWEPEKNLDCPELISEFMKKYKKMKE

KQLATKAARKSAPATGGVK (trimethyl-lysine at K27; fluorescein isothiocyanate (FITC) at the N-terminus) [H3K27me3 peptide, FITC-labeled]
Kd [1]: 115 µM and 79 µM and 143 µM | Kd [2]: 115 µM and 101 µM and 84 µM | Kd [3]: 17.5 µM and 21 µM and 19 µM | Kd [4]: 4.5 µM and 3.9 µM and 3.4 µM | Kd [5]: 5.1 µM and 4.7 µM and 5.2 µM | Kd [6]: 138 µM and 84 µM and 109 µM | Kd [7]: 4.8 µM and 5.2 µM | Kd [8]: 117 µM and 101 µM and 84 µM

B1: H3K9me3 peptide, biotinylated (peptide)
chain: ARTKQTARKSTGGKAPR
modifications: trimethyl-lysine at K9; biotin followed by an aminohexanoic acid linker at the N-terminus
Kd [9]: 4.9 µM and 4.2 µM | Kd [10]: 5.3 µM and 4.7 µM | Kd [11]: 4 µM and 3 µM | Kd [12]: 8.5 µM and 12 µM | Kd [13]: 2.7 µM and 3.3 µM | Kd [14]: 1.9 µM and 2.1 µM

ARTKQTARKSTGGKAPR (trimethyl-lysine at K9; fluorescein isothiocyanate (FITC) at the N-terminus) [H3K9me3 peptide, FITC-labeled]
Kd [1]: 41 µM and 27 µM and 23 µM | Kd [2]: 11 µM and 9.7 µM and 9.4 µM | Kd [3]: 24 µM and 18 µM and 19 µM | Kd [4]: 7.5 µM and 5.7 µM and 7.8 µM | Kd [5]: 8.4 µM and 7.4 µM and 8.2 µM | Kd [6]: 33.5 µM and 37 µM and 23 µM | Kd [7]: 8.6 µM and 7.5 µM | Kd [15]: 0.453 µM and 0.543 µM and 0.529 µM | Kd [16]: 5.6 µM and 5 µM and 4.8 µM
